In the nanobody polyreactivity screen of Harvey et al. (2022):

Test: yeast display, Sf9 membrane polyspecificity reagent, FACS + sequencing; frameworks hold sequencing errors
In short: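 Synthetic nanobody libraries on Saccharomyces cerevisiae BJ5465 were galactose-induced for 36–48 hours, stained 1 hour at 4 °C with 10% biotinylated, detergent-solubilized Sf9 membrane reagent and enriched on streptavidin microbeads. FACS then separated cells into low and high (top ~1%) gates by anti-HA (expression) and streptavidin (reagent binding) fluorescence. Genes were colony-PCR amplified, MiSeq 2 × 250 sequenced and CDR-length filtered. A clone's polyreactivity label is that of its gate of origin.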

Row | Sequence | polyreactivity (PSR sort gate)
1 | QVQLVESGGGLVQAGGSLRLSCAASGNSFPYYDMGWYRQAPGKERELVAAITSSASGTYYADSVKGRFTISRDNAKNTVYLQMNSLKPEDNAVYYCAAGVFFFTFDYWGQGTQVTVSS | low polyreactivity
2 | QVQLVESGGGLVQAGGSLRLSCAASGSTLALYTMGWYIQAPGKERELVAAISKNGGRTYYADSVKGRFRISRDNAMNTVYLQMNSLKPEDTAVYYCAAASGSYRGYDYWGQCTQVTVSS | high polyreactivity
3 | QVQLVESGGGLVQAGGSLRISCAASGRIFWANVMGWYRQAPGKERELVAAITGGGRTYYADSVKGRFTISRDNAKNTVYLQMNSLKPEDTAVYYCNAELNWYYYIHLDYWGQGTQVTVSS | low polyreactivity
4 | QVQHVESGGGLVQAGGSLRLSCAASGSTFYGYAMGWYRQAPGKERELVARISSSSGRTYYADSVKGRFTISRDNAKNTVYLQMNSLKPEDTAVFYCAARFLWSVFGRKGGYWGQGTQVTVSS | low polyreactivity
5 | QVQLVESGGGLVQAGGSLRLSCAASGSTFRWYAMGWSRQAPGKERELVAAIRRIGSRTYADSVKGRFTISRDNAKNTVYLQMNSLKPEDTAVYYCATRYKYTGYDYWGQGTQVTVSS | high polyreactivity
6 | QDQLVESGGGLVQAGGSLRLSCAATGRIFERNAMGWYRQAPAKERELVARITSGGGTYYADSVKGRFTISRDNAKNTVYLQMNSLKPEDTAVYYCAVQYLYRKYRRYDYWGQGTQVTVSS | high polyreactivity
7 | QVQLVESGGGLVQAGGSLRLSSAASGIIFGGSAMGWYRQAPGKEWELVAAISRSGGSTYYADSVKGRFTISRDNPKKTVYLQMNSLKPEDTAVYYCNAVPRRKGFNYWGQGTQVTVSS | high polyreactivity
8 | QVQHVESGGGLVQAGGSLRLSCAASGSTFWGYAMGWYRQAPGKERELVAAINWIGGSDTFYADSVKGRFTISRDNAKNTVYLQMNSLKPEDTAVYYCAATYYNLPYSWGYDSWGQGSQVTVSS | low polyreactivity
9 | QVQLVESGGGLVQAGGSLRLSCAASGLTFSGYVMGWYRQAPGKERELVAAISSSGGRTYYADSVKGRFTISRDNAKNTVYLQMNSLKPEDTAVYYCAARNKYGGYPYGYDYWGQGTQVTVSS | high polyreactivity
10 | QVQLVESGGGLVQAGCSLRLICAASGSIFDEYAMGWYRKAPGKERELVAAITSNGGSTYADSVKGRFTISRDNAKNTVYLQMNSLKPEDTAVYYCAADYFVYWYYGYGYWGQGTQVTVSS | low polyreactivity
11 | QVQLVESGGGLVQAGGSLRLSCAASGRIFTYYTMGWYRQAPAKYREFVAAISWSGTSTYYADSVKGRFTISRDNAKNTFYLQMNSLKPEDTAVYYFAARDPPRAGYDYWGQGTHVTVSS | high polyreactivity
12 | QVHLVESGGGLVQAGGSLRLSCAASGSIFTSYAMGWYRQAPGKERELVAAITSGGSTNYADSVKGRFTISRDNAKNTVFLKMNSLKPEDTAVDYCAKDRPGQLRWWFLYGYWGQGTQVTVSS | low polyreactivity
13 | QVQLVESGGGLVQAGGSLRLSCAASGRIFTPYAMGWYRQAPGKERELVAVIRDGSTYYADSVKGRFTISRDNAKNTVYLQMNSLKPEDTAVYYCAVRHRYTRAYWGRDYWGQGTQVTVSS | low polyreactivity
14 | QVQLVESGGGLVQAGGSLRLSCAASGFIFKVYAMGWYRQAPGKERELVAAISSRGGRTNYADSVKGRFTISRDNAKNTVYLQMNSLKPEDTAVYYCATGAAGAYDYWGQGTQVTVSS | high polyreactivity
15 | QVQLVESGGGLVQAGGSLRLSCAASGSIFGTNAMGWYRQAPGKERELVAAISFSGGDTYYADSVKGRFTISRDNAKKTVYLQMNRLKPEDTAVYYCAAEVPDTDAYGYWGQGTQVTVSS | low polyreactivity
16 | QVQLVESGGGLVQAGGSLRLSCAASGSTFGYNTMGWYRQAPGKERELVAAITSGGRTYYADSVKGRFTISRDNAKNTVYLQMNILKPEDTAVYYCAAYYWWGYPENDYWGQGTQVTVSS | high polyreactivity
17 | QVQLVESGGGLVQAGGSLRLSCAASGFIFKIYAMGWYRQAPGKERELVAAISSGDNTNYADSVKGRFTISRDNAKNTVYLQMNSLKPEDTAVYYCAARAYRWRSFSTMYYWGQGTQVTVSS | high polyreactivity
18 | QVQLVESGGGLVQAGGSLRLSCAPSGGIFGRNAMGWYRQAPGKESELVAGITNGGSTTYADSVKGRFTISRDNAKNTVYLQMNSLKPEDTAVYYCAVQLYRRWPYYQTHGYDYWGQGTQVTVTS | low polyreactivity
19 | QVQLVESGGGLVQAGGSLRLSCAASGITFVLYAMGWYRQAPGKERELVAAITWRGGSTYYADSVKGRFTISRDNAKNTVYLQMNSLKPEDTAVYYCAAVQFTSYRQGDYWGQGTQVTVSS | low polyreactivity
20 | QVQLVESGGGLVQAGGSLSISCAASDLPGLCYGWYRQAPGKERELVAAMTSNGGSTYYADSVKGRFTISRDNAKITVYLQMNSLKPEDTAVYYCATEHHTVQVYDYWGQGTQVTVSS | low polyreactivity
21 | QVQLQESGGGLVQAGGSLRLSCAASGYISSWYPKGWYRQAPGQEREFVATIAPGATTYYADSVKGRFTMSRDYAKNTVYLQMNSLKPEDTAVYYCAAGPENNDFYSYWGQGTQVTVSS | low polyreactivity

Row | Sequence | polyreactivity (PSR sort gate)
22 | QVQLVESGGGLVQAGGSLRLSCAASGRIFYLYAMGWYRQAPGKERELVASINSGDSTHYADSVKGRFTISRDNAKNTVYLQMNSLKPEDTAVYYCATRRYTRSRWYDYWGQGTQVTVSS | low polyreactivity
23 | QVQLVESGGGLVQAGGSLRLSCAASGSIISVYVMGWYRQAPGTERELVASITSGASTNYADSVKGRFTISRDNETNTVYLQMNSLKPEDTAVYYCAARDWYDGFYYWGQGTQVTVSS | low polyreactivity
24 | QVQLVESGGGLVQAGGSLRLSCAASGSILAGYAMGWYRQAPGKERELVAAITTGGGSTYYADSVKGRFTISRDNAKNTVYLQMNSLKPEDTAVYYCAAYRKPGSWTWWVRGYGYWGQGTQVTVSS | low polyreactivity
25 | QVQLVESGGGLVQAGGSLRLSCAASGLIFPYYVMGWYRQAPGKERELVAAITWSGGRTYYADSVKGRFTISRDNAKNTVSLQMNSLKPEDTAVYYCAATYWTIDYWGQGTQVTVSS | low polyreactivity
26 | QVQLVESGAGIVQAGGSLRLSCAASGRTCTWYAMGWYTQAPGKERELVAAISKSGGSTYYADSVKGRFTISRDTAKNTVFLQMNSLKPEDTAVYYCNADFYGYFLGYGYWGQGTQVTVSS | low polyreactivity
27 | QVQLVESGGGLVQAGGSLRLSCAASGSIFSINTMGWYRQAPGKERELVAAITRSGSGTYYADSVKGRFTISRDNAKNTVYLQMNSLKPEDTAVYYCNADDWVGRSLRYDYWGQGTQVTVSS | low polyreactivity
28 | QVQLVESGGGLVQEGGSLRLSCAASGSSFCSYAMGRYRQAPGKERELVAAISSSGDSTYADSVKGRFTMSRDNAKNTVYLQMNSLKPEDTAVYYCAVGGAGSDDYWGQGTQVTVSS | low polyreactivity
29 | QVQLVESGGGLVQAGGSLRLSCAASGSTFGGYAMGWYRQAPGKERELVAAISSGGSTYYADSVKGRFTISRDNAKNTVYLQMNSLKPEDTAVYYCAADTYAHWGYYGSYYRDDYWGQGTQVTVSS | low polyreactivity
30 | QVQLVESGGGLVQAGGSLRLSCAASGFTFGNNGMGWYRQAPGKERELVASISGGGDSTYYADSVKGRFTISRDNAKYTVYLQMNSLKREDTAVYYCAADYRQEPGYTGYYYWGQGTQVTVSS | low polyreactivity
31 | QVQLVESGGGLVQAGGSLRLSCAASGRTFRLYAMGWYRQAPGKERELVATITSSGGSTYYADSVKGRFTISRDKAKNTVYLQMNSLKPEDTAVYYCAAQTYYSYDYWGQGTQVTVSS | low polyreactivity
32 | QVQLVESGGGLVQAGVSLRLSCAASGRIFLWYAMGWYRQAPGKERELVAVIRGRGDSTSYADSVKGRFTISRDNAKNTVYLQMNSLKPEDTAVYYCADVGRYDYNDWGQGTQVTVSS | low polyreactivity
33 | QVQLVQSVGGLVQAGGSLRLSSAASGSTFTVYAMGWYRQAPGKERELVAAISWRGGSTYYADSVKGRFTISRDNAKKTVYLQMNSLKPEDTAVYYCAADGLDIAPYGYGYWGQGTQVTVSS | low polyreactivity
34 | QVQLVESGGGLVQAGGSLRLSCAASGSIFGYYAMGWYRQAPGKERELVAAITSGGNTYYADSVKGRFTISRDNAKNTVYLQMNSLKPEDTAVSYCAAEFWYTYPYLVDYWGQGTQVTVSS | low polyreactivity
35 | QVQLVESGGGLVQAGGSLRLSCAASGFNIIPYDMGWYRQAPGKEMDLVATISRGGSTNYADSVKGRFTISRDNAKNTVYLQMNSLKPEDTAVYYCAAEYKVVFSQPYGEYDYWGQGTQVTVSS | low polyreactivity
36 | QVQLVESGGGLVQAGGSLRLSCAASGSTFSNYAMGWYRQAPGKERELVAAISRRGTSTYYADSVKGRFTISRDNAKNTVYLQMNSLKPEDTAVYYCAADYFRYTYDYWGQGTQVTVSS | high polyreactivity
37 | QVQLVETGGGLVQAGGSLRLSCAASGSTFWYNAMGWYRQAPGKERELVAAISRSGATTYYADSVKGRFTISRDNAKNTVYLQMNSLKPEDTAVYYCNAVISPSSYVRNSDYWGQGTQVTVSS | low polyreactivity
38 | QVQIVESGGGLVQAGGSLRVSCAPSGNISYSYDMGWYRQAPGKERELVASITESGGSTYYADSVKGRFTISRDNAKNTVYFQMNILKPEDTAVYYCYWGHGTQVTVSS | low polyreactivity
39 | QVQLVESGGGLVQAGGSLRLSCAASGSTFVTYTMGWYRQAPGKERELVAAISWSGDTTYADSVKGRFTISRDNAKNTVYLQMNSLKPEDTAVYYCAADDDWSGVEFDYWGQGTQVTVSS | low polyreactivity
40 | QVQLVESGGGLVQAGGSLRLSCAASGFIFQANAMGWYRQAHGKERELVAAIRSGDRTYYADSVKGRFTISRDNAKNTVYLQMNSLKPEDTAVYYCAAFYHHYYRYDYWGQGTQVTVSS | low polyreactivity
41 | QVQLVESGGGLVQAGGSLRLSCAASGSIFPDYAMGWYRQAPGKERELVAAITWRDDSTYFADSVKGRFTISRDNAKNTVYLQMNSLKPEDTAVYYCNASALDPLYAKDEYWGQGTQVTVSS | low polyreactivity
